Measurements taken from patent US20170189511A1.

Target: HLA-A*24 (peptide-receptive MHC class I monomer of the UV-ligand exchange assay) (human)
Assay: UV-ligand exchange with anti-b2m ELISA

| peptide exchange yield [%] | Binder |
| --- | --- |
| 50 to 75 | HYPPVQVLF [Peptide SEQ ID NO: 285 (…)] |
| 50 to 75 | EYSLFPGQVVI [Peptide SEQ ID NO: 197 (…)] |
| 50 to 75 | YFIDSTNLKTHF [Peptide SEQ ID NO: 269 (…)] |
| 20 to 49 | AYVVFVSTL [Peptide SEQ ID NO: 207 (…)] |
| 50 to 75 | YYKSTSSAF [Peptide SEQ ID NO: 218 (…)] |
| > 75 | TYELRYFQI [Peptide SEQ ID NO: 204 (…)] |
| 20 to 49 | PYRLIFEKF [Peptide SEQ ID NO: 281 (…)] |
| 50 to 75 | YYGPSLFLL [Peptide SEQ ID NO: 200 (…)] |
| 50 to 75 | NYYEVHKELF [Peptide SEQ ID NO: 270 (…)] |
| > 75 | VYQGHTALL [Peptide SEQ ID NO: 277 (…)] |
| 50 to 75 | TYKDEGNDYF [Peptide SEQ ID NO: 209 (…)] |
| 50 to 75 | TFSVSSHLF [Peptide SEQ ID NO: 222 (…)] |
| 50 to 75 | RYAEEVGIF [Peptide SEQ ID NO: 199 (…)] |
| 50 to 75 | QYLGQIQHI [Peptide SEQ ID NO: 268 (…)] |
| 50 to 75 | LYITEPKTI [Peptide SEQ ID NO: 287 (…)] |
| 50 to 75 | IYATEAHVF [Peptide SEQ ID NO: 201 (…)] |
| > 75 | VYWDSAGAAHF [Peptide SEQ ID NO: 202 (…)] |
